The source of these data is article PMC10023680 (2023).

B1: GST-tagged ELMO1-RBD (residues 1-113), wild-type [human] / RhoG (residues 1-184) [human] (parent complex)
chain 1: MPPPADIVKVAIEWPGAYPKLMEIDQKKPLSAIIKEVCDGWSLANHEYFALQHADSSNFYITEKNRNEIKNGTILRLTTSPAQNAQQLHERIQSSSMDAKLEALKDLASLSRD
chain 2: not shown

Variants of B1 are the subject of the first test. Put plainly: SPR; RhoG in the active GTPγS-bound form; n = 3 independent experiments.
For chain 1 L21A, the Kd worked out at 163 µM. The same measure, in the same setting: with chain 1 E13A the figure was 44.3 µM. Still for that read-out and setting: with chain 1 N58A the figure was 10 µM.

The variants in a further test derive from B1. Put plainly: SPR; read at the highest RhoG concentration, about 35 µM; RhoG in the active GTPγS-bound form; read off a plot.
chain 1 L21A: the response is about 18%.

In the case of chain 1 Y18A, the response is about 59%. On the same count and under the same terms, with chain 1 E13A the figure was about 46%; with chain 1 K9A, about 0%; with chain 1 N58A, about 78%. Consider chain 1 K20E, for which the response is about 64%.
